One may read the EC50 as the midpoint of the concentration-response curve. Lower therefore signals an effect from little substance. The IC50 is the concentration at which inhibition is half-maximal. A lower IC50 goes with greater potency in that assay.

6 molecules from US20240327518A1 (BETTA PHARMACEUTICALS, published 2024) can be followed below.

Test [1] deals with T1, human PD-L1 on cells (human, UniProt Q9NZQ7 19-290). Briefly: cell-based or functional assay.
The target in test [2] is T2, mouse PD-L1-hFc protein (ACRO Biosystems) (mouse, UniProt Q9EP73 19-238).
T2 construct: Bought protein; not shown: human Fc (hFc)
T2 sequence (Q9EP73 19-238 limits assumed): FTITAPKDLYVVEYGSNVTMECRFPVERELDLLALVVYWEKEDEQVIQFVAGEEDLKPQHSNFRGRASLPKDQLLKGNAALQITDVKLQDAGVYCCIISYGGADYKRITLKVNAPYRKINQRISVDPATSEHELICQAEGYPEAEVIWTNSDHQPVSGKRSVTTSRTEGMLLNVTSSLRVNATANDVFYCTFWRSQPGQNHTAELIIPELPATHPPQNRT
Briefly: ELISA, plate coated with mouse PD-L1-hFc. The method, then:
(§1) A 96-well plate was coated with 1 μg/mL mouse PD-L1-hFc protein (manufacturer: ACRO Biosystems) and incubated at 4° C. overnight. The plate was washed with wash buffer and blocked with a PBS solution containing 2% BSA for 60 minutes. After a wash with wash buffer, different concentrations of the antibodies to be tested (the initial concentration was 100 nM, and 4-fold gradient dilution was performed) were added, and the plate was incubated at 37° C. for 120 minutes. The plate was washed with wash buffer, and an HRP-labeled goat anti-human secondary antibody (diluted at 1:10,000) was then added. The plate was incubated at 37° C. for 60 minutes. The plate was washed with wash buffer, and TMB substrate solution was added at 100 μL/well. After 10-15 minutes of reaction at room temperature, 100 μL of 2 M hydrochloric acid stop solution was added to stop the reaction, and OD450 values were measured with a microplate reader.

Test [3] has as its target T3, Cynomolgus/Rhesus macaque PD-L1-hFc protein (ACRO Biosystems) (Cynomolgus/Rhesus macaque, UniProt G7PSE7 19-238).
T3 construct: Bought protein; also called Cyno PD-L1; cynomolgus monkey PD-L1
Briefly: ELISA, plate coated with Cynomolgus/Rhesus macaque PD-L1-hFc. The method, then: as §1, with “1 μg/mL Cynomolgus/Rhesus macaque PD-L1-hFc protein” for “1 μg/mL mouse PD-L1-hFc protein”, “buffer and then blocked with” for “buffer and blocked with”, “(diluted at 1:10,000, manufacturer: Jackson) was then” for “(diluted at 1:10,000) was then”, “stop the reaction.” for “stop the reaction, and OD450 values were measured with a microplate reader.”

The target in test [4] is T1, human PD-L1 on cells. Briefly: flow cytometry on MC38-hPD-L1 cells overexpressing human PD-L1. As to the method: The binding activity of the humanized antibodies to PD-L1 was measured by flow cytometry. An MC38-hPD-L1 cell line that overexpresses human PD-L1 (manufacturer: Kyinno Biotechnology (Beijing) Co., Ltd.) was thawed, and the cells were added to a 96-well plate at 1×10⁵ cells/well. Different concentrations of the antibodies to be tested (the initial concentration was 100 nM, and 5-fold gradient dilution was performed) were added, and the plate was incubated at 4° C. for 30 minutes. A fluorescently labeled goat anti-human IgG secondary antibody (manufacturer: abcam, catalog No. 98596) was then added to detect antibodies bound to the cell surfaces. Antibody-antigen binding dose response curves were generated using geometric values, and four-parameter raw data were plotted using the Graphpad Prism V6.0 software.
(In general: Flow cytometry measures light scatter and fluorescence of single cells or particles in a stream.)

Test [5] concerns the target T1, human PD-L1 on cells. Briefly: competitive flow cytometry on 293T-PD-L1 cells, blocking of human-CD80-mFc binding. The method, then:
The blocking of PD-L1 binding to CD-80 by the antibodies was measured using a competitive flow cytometry method. 293T-PD-L1 cells were added to a 96-well plate at 1×10⁵ cells/well. Antibody dilutions with different concentrations (the initial working concentration was 200 nM, and 4-fold dilution was performed) were added to the cells, and the plate was incubated at 4° C. for 30 minutes. After the incubation, the plate was washed with PBS containing 2% FBS and centrifuged at 1200 rpm for 4 minutes, and the supernatants were discarded. Then human-CD80-mFc (2 μg/mL, manufacturer: ACRO) was added at 100 μL/well, and the plate was incubated in the dark at 4° C. for 30 minutes. After the incubation, the plate was washed with PBS containing 2% FBS. A fluorescently labeled goat anti-mouse IgG secondary antibody diluted at 1:200 was added at 100 μL/well, and the plate was incubated in the dark at 4° C. for 30 minutes. After the incubation, the plate was washed with PBS containing 2% FBS and tested on a flow cytometer. The mean fluorescence values were measured.

In test [6] the target is PD-L1-Biotin (UniProt Q9NZQ7 19-238, limits assumed, biotin label (site not stated)). Briefly: competitive flow cytometry: antibody premixed with PD-L1-Biotin, blocking of binding to 293T-hPD1 cells. As to the method:
The blocking of PD-L1 binding to its ligand PD-1 by the humanized antibodies was measured using a method based on competitive flow cytometry. 293T-hPD1 cells were added to a 96-well plate at 1×10⁵ cells/well. Different concentrations of the antibodies to be tested (the initial working concentration was 200 nM, and 4-fold dilution was performed) were mixed with a PD-L1-Biotin dilution (2 μg/mL, 50 μL/well), and the mixtures were incubated at room temperature for 30 minutes. Then the mixtures were added to the cells at 100 μL/well and well mixed. The plate was incubated at 4° C. for 60 minutes, and the blocking activity of the antibodies was measured using a PE fluorescently labeled streptavidin flow cytometry antibody. The mean fluorescence values were measured. Then antibody-antigen blocking reaction curves were generated using geometric values, and four-parameter plots were generated using the Graphpad Prism V6.0 software.

T3 sequence (G7PSE7 entry or part of it limits assumed, form in doubt): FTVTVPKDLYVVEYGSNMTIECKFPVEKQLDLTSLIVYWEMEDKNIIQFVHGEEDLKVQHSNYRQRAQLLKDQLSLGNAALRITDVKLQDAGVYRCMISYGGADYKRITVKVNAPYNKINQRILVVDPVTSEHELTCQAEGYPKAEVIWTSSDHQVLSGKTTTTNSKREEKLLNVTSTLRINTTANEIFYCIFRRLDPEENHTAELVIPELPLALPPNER
T1 sequence (Q9NZQ7 19-290): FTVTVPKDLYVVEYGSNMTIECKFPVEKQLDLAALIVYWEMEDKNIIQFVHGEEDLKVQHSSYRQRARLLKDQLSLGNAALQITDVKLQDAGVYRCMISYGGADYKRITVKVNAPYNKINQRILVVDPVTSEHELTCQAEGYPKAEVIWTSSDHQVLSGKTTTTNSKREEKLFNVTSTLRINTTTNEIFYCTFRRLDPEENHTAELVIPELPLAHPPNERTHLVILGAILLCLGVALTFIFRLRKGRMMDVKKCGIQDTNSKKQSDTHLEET
PD-L1-Biotin, sequence (Q9NZQ7 19-238 limits assumed): as the sequence (G7PSE7 entry or part of it limits assumed, form in doubt) above, with T33A, S34A, N62S, Q68R, R82Q, L173F, A185T, I192T, L215H counted along it

B1: antibody 3 (VHH)
VHH: EVQLVESGGGSVQTGGSLRLSCVASGRDFLTYGMGWFRQAPGKEREFVASINWSGSMTYYADSVKGRFTISRDNAKNTVYLQMNSLKPGDTAVYICAARRGAVTYASSNEYEHWGQGTQVTVSS
As for B1, the “IC50 (nM), NFAT-luciferase reporter gene assay” value (from here on “IC50 (nM)”) in test [1] was determined as 0.211 nM. For the same molecule, in test [2], the binding result is recorded as “no binding (tested: initial concentration 100 nM)”. Besides, the concentration for a half-maximal effect (EC50) in test [3] is 0.04 nM; in test [4], 0.025 nM. Moreover, the half-maximal inhibitory concentration (IC50) came to 5.2 nM in test [5] and 1.1 nM in test [6].

B2: antibody 4 (VHH)
VHH: EVQLVESGGGLVQAGDSLRLSCTASGRDFLTYGMGWFRQAPGKEREFVASINWSGSMTYYADSVKGRFTISRDNAKNTVYLQMNSLKPGDTAVYICAARRGAVTYASSNEYEHWGQGTQVTVSS
Turning to B2, the “IC50 (nM)” value in test [1] stood at 0.26 nM. Moreover, the binding result in test [2] is “no binding (tested: initial concentration 100 nM)”. The EC50 was 0.034 nM in test [3] and 0.16 nM in test [4]. Moreover, the 50% inhibitory concentration (IC50) is 1.5 nM in test [5] and 2.8 nM in test [6].

B3: antibody 3hu (VHH)
VHH: EVQLVESGGGLVQPGGSLRLSCAASGRDFLTYGMGWFRQAPGKGREFVASINWSGSMTYYADSVKGRFTISRDNAKNTVYLQMNSLKAEDTAVYICAARRGAVTYASSNEYEHWGQGTLVTVSS
notes: Humanized nanobody; also called humanized antibody 3
B3 yielded a 50% effective concentration (EC50) in test [4] of 0.025 nM.

B4: antibody 2 (VHH)
VHH: QVQLVESGGGLVQPGGSLSLSCVASGFTFSSYAMRWVRQAPGKEPEWVAGINTGSEIVVYANSVRGRFAISRDNARDTLFLQMNSLKPEDTAVYYCATGLVSAEHDGIWGQGTQVTVSS
As to B4, the “IC50 (nM)” value in test [1] was determined as 0.2 nM. Further, the binding result in test [2] is recorded as “no binding (tested: initial concentration 100 nM)”. Besides, the EC50 in test [3] was determined as 0.136 nM; in test [4], 0.14 nM. Also, the values for the IC50 in test [5] and in test [6] were 1.5 nM and 2.7 nM, respectively.

B5: antibody 1 (VHH)
VHH: QVQLVESGGGLVQAGGSLRLSCAASGRSFSSSGMGWFRQAPGKDREFVATINSSGGDTYYRDSVEGRFTTSRDNAKNTMSLQMNDLKPEDTAVYYCAAKEGGGPSSIPAIYDYWGQGTQVTVSS
notes: expressed in mammalian cells
Consider B5, for which, in test [1], the “IC50 (nM)” value is 0.378 nM. Also, the binding result in test [2] is reported as “no binding (tested: initial concentration 100 nM)”. For the same molecule, the 50% effective concentration (EC50) was determined as 0.133 nM in test [3] and 0.041 nM in test [4]. In addition, the results for the half-maximal inhibitory concentration (IC50) in test [5] and in test [6] were 2.6 nM and 4.2 nM, respectively.

B6: antibody 5 (VHH)
VHH: QVQLVESGGGLVQAGGSLRLSCAASGRSFSSSGMGWFRQAPGKDREFVATINSSGGDTYYADSVEGRFTTSRDNAKNTMSLQMNDLKPEDTAVYYCAAKEGGGPSSIPAIFDYWGQGTQVTVSS
Turning to B6, the “IC50 (nM)” value in test [1] is 0.305 nM. Also, in test [2], the binding result was “no binding (tested: initial concentration 100 nM)”. In addition, in test [3], the 50% effective concentration (EC50) was 0.034 nM.
